Molecular target: McbR (Escherichia coli (avian pathogenic, strain APECX40)) (UniProt P76114)
Assay: EMSA

McbR (Escherichia coli (avian pathogenic, strain APECX40)), sequence (P76114 whole entry): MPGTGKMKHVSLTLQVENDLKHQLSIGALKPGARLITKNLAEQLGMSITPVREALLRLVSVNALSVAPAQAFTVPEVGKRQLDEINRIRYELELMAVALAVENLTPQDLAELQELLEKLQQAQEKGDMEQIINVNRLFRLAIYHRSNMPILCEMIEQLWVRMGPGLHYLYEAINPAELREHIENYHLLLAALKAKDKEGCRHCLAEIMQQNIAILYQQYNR

ATGTTCGTGAATTTACAGGCGTTAGATTTACATACATTTGTGAATGTATGTACCATAGCACGACGATAATATAAACGCAGCAATGGGTTTATTAACTTTTGACCATTGACCAATTTGAAATCGGACACTCGAGGTTTACAT (double strand) [p-acrAB]
binding: binds

Source: article PMC7705038
